Results as given in article PMC6787036.

Molecular target: human alpha-thrombin (Homo sapiens, UniProt P00734;P00734 328-363;364-622)
Assay: affinity chromatography (HPLC, aptamer monolith); 5 mM Mg2+, pH 8.0; eluted with 2 M NaClO4; 10 mM Tris HCl, 5 mM MgCl2 (varied 0-20 mM), pH 8.0 (varied 4-10), 0.3 mL/min, elution with 2 M NaClO4; temperature not stated

B1: TBA (15-mer thrombin binding aptamer) (structured_DNA)
DNA: GGTTGGTGTGGTTGG
modifications: 5' amino-C6 (5AmMC6), covalently immobilised on poly(EDMA-co-GMA) monolith by Schiff-base (EDA/glutaraldehyde)
B1: binds.
